This passage reports cytotoxicity against CD19+ Nalm6 ALL cells (7-AAD/CFSE flow cytometry, E:T=0.25-4.0) (fold over non-transduced control) results from US20260015421A1.

This assay addresses CD19 on CD19+ cells (Raji, Nalm6) (human) (UniProt P15391). Briefly: cell-based or functional assay.
UniProt P15391, sequence (P15391 20-556): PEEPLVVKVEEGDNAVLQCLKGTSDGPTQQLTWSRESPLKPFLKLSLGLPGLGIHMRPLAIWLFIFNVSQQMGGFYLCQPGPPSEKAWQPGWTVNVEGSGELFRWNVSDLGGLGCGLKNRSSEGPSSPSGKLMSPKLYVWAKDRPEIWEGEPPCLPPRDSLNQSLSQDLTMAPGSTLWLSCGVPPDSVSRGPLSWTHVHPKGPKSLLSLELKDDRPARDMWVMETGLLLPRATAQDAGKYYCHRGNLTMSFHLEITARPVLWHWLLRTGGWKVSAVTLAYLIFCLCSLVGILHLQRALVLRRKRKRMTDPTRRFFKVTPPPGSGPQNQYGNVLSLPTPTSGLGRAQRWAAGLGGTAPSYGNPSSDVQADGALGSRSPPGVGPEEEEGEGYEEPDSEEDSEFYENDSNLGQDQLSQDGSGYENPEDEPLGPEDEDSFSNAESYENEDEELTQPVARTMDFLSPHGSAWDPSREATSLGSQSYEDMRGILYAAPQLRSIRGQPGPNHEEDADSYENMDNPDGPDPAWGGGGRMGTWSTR

The substance “non-signaling CD19 CAR FMC63-CD8h-CD28TMCo-noZ (IL15 co-expressed), on γδ T cells (from UniProt P01732 138-182; P10747 153-220)” gave a cytotoxicity against CD19+ Nalm6 ALL cells (7-AAD/CFSE flow cytometry, E:T=0.25-4.0) (fold over non-transduced control) of 1.5.
